Reference: patent publication US20090253622A1, “USE OF TLR3 AGONISTS FOR THE TREATMENT OF NEURODEGENERATIVE DISORDERS” (Nederlandse Organisatie voor toegepast - …, priority 2006, published 2009)
Entries after “also recorded” stand apart in the source; their conditions may differ.

Key:
[1] = Circular dichroism spectroscopy, helical content; type: physicochemical; conditions: dissolved in 50% TFE in PBS, without dialysis
Experimental: Purified recombinant stathmin was exposed to two different conditions that differentially affect the extent of helix formation within the protein chain. One part of the protein preparation was exposed to 5% trifluoroacetic acid (TFA) in water for 1 h at 37° C., strongly acidic conditions that tend to disrupt an alpha helix. […] […] Next, the samples were analyzed by […] circular dichroism spectroscopy that allows calculation of helical content on the basis of elipticity in the absorption of circularly polarized light. In both cases, another part of the dialyzed sample was tested in parallel for induction of TLR3-mediated release of CXCL8 (IL-8) in human astrocytes as described elsewhere in this application.

TLR3 [2] = assay: IL-6 release by astrocytes from wild-type mice (ELISA); type: cell-based; conditions: wild-type mouse astrocytes, 48 h
Experimental: Astrocytes were cultured in poly L-lysine coated 96 well-flat-bottom plates at 1×10^4 cells per well in 100 l DMEM/HAM-F10 medium containing 10% FCS and antibiotic supplements for 24 h to obtain post-confluent cultures. Recombinant human stathmin was next added to astrocytes, and parallel control stimuli were performed with either poly I:C, an established TLR3 agonist, or ultrapure lipopolysaccharides, established TLR4 agonists. After addition of these stimuli astrocytes were incubated for another 48 h. Astrocyte culture supernatants were subsequently collected and using a commercial ELISA kit levels of IL-6 were determined, as a marker for TLR-mediated activation of murine astrocytes.

TLR3 [3] = assay: CXCL8 release by cultured human astrocytes (ELISA); type: cell-based
Experimental: Cos-7 cells (25,000 cells per well in 96-well plates) were transfected for 5 h with 768 pools of cDNA derived from human brain tumours (5 pooled tumours including meningioma, oligodendroglioma, astrocytoma grades II and IV, and medulloblastoma; NCI CGAP Brn35; Invitrogen) using lipofectamine, after which cells were thoroughly washed. Transfection with green-fluorescent protein-encoding cDNA was used as an internal control for transfection efficiencies. After continued culture of the transfected cells for 48 h, 75 μL of each culture supernatant was harvested and added to cultured human astrocytes seeded at 1,000 cells per well in 75 μL. After 48 h of culture, supernatants were harvested and evaluated for CXCL8 release using ELISA. Stimulation of astrocytes with poly I:C served as positive controls for CXCL8 release in all cases, non-transfected Cos 7 culture supernatants as negative controls.
Purified recombinant stathmin was exposed to two different conditions that differentially affect the extent of helix formation within the protein chain. One part of the protein preparation was exposed to 5% trifluoroacetic acid (TFA) in water for 1 h at 37° C., strongly acidic conditions that tend to disrupt an alpha helix. In parallel, another part was exposed for 1 h at 37° C. to 5% of the helix-promoting solvent trifluoroethanol (TFE) in phosphate-buffered saline (PBS). After exposure to these different conditions, both protein samples were extensively dialysed for 48 h against several changes of PBS. Next, the samples were analyzed by […] circular dichroism spectroscopy that allows calculation of helical content on the basis of elipticity in the absorption of circularly polarized light. In both cases, another part of the dialyzed sample was tested in parallel for induction of TLR3-mediated release of CXCL8 (IL-8) in human astrocytes as described elsewhere in this application.

B1: stathmin: cytosolic phosphoprotein of 149 amino acids (SEQ ID NO: 1); purified recombinant human stathmin from a commercial source (protein)
chain: MASSDIQVKELEKRASGQAFELILSPRSKESVPEFPLSPPKKKDFSLEEIQKKLEAAEERRKSHEAEVLKQLAEKREHEKEVLQKAIEENNNFSKMAEEKITHKMEANKENREAQMAAKLERLREKDKHIEEVRKNKESKDPADETEAD
modifications: Human; (44)..(138) Stathmin-like alpha helix domain
notes: purified recombinant human stathmin from a commercial source
For B1, the helical content [1] was 98%, the IL-6 release (TLR3 [2]) was “dose-dependent IL-6 induction; also recorded: marked IL-6 release” and the “astrocyte CXCL8 response, dose dependence” value (TLR3 [3]; at 100 μg/mL) was “still not maximal”. The “CXCL8 release by cultured human astrocytes (in words)” value (TLR3 [3]; doses between 5 and 100 μg/mL, four donors) was “marked CXCL8 release” and the “stathmin-induced response under TLR3-directed small interfering RNA” value (TLR3 [3]; human astrocytes, three TLR3 siRNAs) was “largely—in one case completely—inhibited”.
